Reference: publication PMC12441935, “De novo designed 3-helix bundle peptides and proteins with controlled topology and stability” (Chemical Science, 2025)

Biological target: the molecule itself
Assay: AUC; sedimentation velocity and sedimentation equilibrium of the individual peptides N and N′, 20 °C

Protein | stoichiometry N
KLAALEKKLAALEKKTAALEYKLAAL [apCCTri-N] | 3
ELAALKEELAALKEETAALKYELAAL [apCCTri-N′] | 3
